These results are taken from PMC4288329, “Characterization of the inositol monophosphatase gene family in Arabidopsis” (Frontiers in Plant Science, 2015).

Common to all, as to assay: malachite green phosphate release assay, Michaelis-Menten fit
What all share (format): biochemical, Arabidopsis thaliana

Substrate in data set [1]: N[C@H](COP(=O)(O)O)Cc1c[nH]cn1
To be noted: 50 mM Tris-Cl pH 7.5, 2 mM MgCl2, 22°C in table note (25°C in methods), substrate 0-1 mM. The text has this:
malachite green phosphate release assay, Michaelis-Menten fit on IMPL2 (AtIMPL2)

Substrate in data set [2]: O=P(O)(O)O[C@@H]1[C@H](O)[C@H](O)[C@@H](O)[C@H](O)[C@H]1O
To be noted: 50 mM Tris pH 9, 3 mM MgCl2, 22°C in table note (25°C in methods), substrate 0-1 mM, substrate inhibition above 1 mM. The text has this: (§1) malachite green phosphate release assay, Michaelis-Menten fit on IMPL1 (AtIMPL1)

Substrate in data set [3]: O=P(O)(O)O[C@H]1O[C@H](CO)[C@H](O)[C@H](O)[C@H]1O
The following applies: 50 mM Tris pH 9, 3 mM MgCl2, 22°C in table note (25°C in methods), substrate 0-1 mM, value approximated.
Text: as §1

B1: IMPL2 (AtIMPL2) (Arabidopsis thaliana) (protein)
chain: LSDTELDRFAAVGNALADASGEVIRKYFRKKFDIVDKDDMSPVTIADQMAEEAMVSIIFQNLPSHAIYGEEKGWRCKEESADYVWVLDPIDGTKSFITGKPVFGTLIALLYKGKPILGLIDQPILKERWIGMNGRRTKLNGEDISTRSCPKLSQAYLYTTSPHLFSEEAEKAYSRVRDKVKVPLYGCDCYAYALLASGFVDLVIESGLKPYDFLALVPVIEGAGGTITDWTGKRFLWEASSSAVATSFNVVAAGDSDIHQQALESLEWH
notes: plasmid pAtIMPL2H
As for B1, in data set [1], the Km stood at 180 ± 5 µM, the kcat worked out at 1.3 ± 0.2 s⁻¹ and the kcat/Km was 7900 ± 200 M⁻¹ s⁻¹.

B2: IMPL1 (AtIMPL1) (Arabidopsis thaliana) (protein)
chain: TTGTISPAHLLEVVELAAKTGAEVVMEAVNKPRNITYKGLSDLVTDTDKASEAAILEVVKKNFSDHLILGEEGGIIGDSSSDYLWCIDPLDGTTNFAHGYPSFAVSVGVLYRGNPAAASVVEFVGGPMCWNTRTFSATAGGGALCNGQKIHVSKTDAVERALLITGFGYEHDDAWSTNMELFKEFTDVSRGVRRLGAAAVDMCHVALGIAESYWEYRLKPWDMAAGVLIVEEAGGAVTRMDGGKFSVFDRSVLVSNGVLHPKLLERIAPATENLKSKGIDFSLWFKPEDYHTEL
notes: plasmid pAtIMPL1H
With B2, in data set [2], the Km was found to be 180 ± 3 µM, the kcat was 0.6 ± 0.1 s⁻¹ and the kcat/Km is 3300 ± 100 M⁻¹ s⁻¹. Further, in data set [3], the Km stood at 450 ± 60 µM, the kcat was determined as 2.4 ± 1.3 s⁻¹ and the kcat/Km turned out to be 5300 ± 500 M⁻¹ s⁻¹.

The Km is the substrate concentration at which the rate is half of its maximum. By kcat is commonly meant the number of substrate molecules converted per active site and unit of time at saturation. A word on the kcat/Km: it is the turnover number divided by the Michaelis constant.
